These results are taken from patent US20200230115A1, “METHODS OF TREATING INFLUENZA-ASSOCIATED VIRAL PNEUMONIA” (priority 2017, published 2020).

Entries after “also recorded” stand apart in the source; their conditions may differ.

Common to all, as to parameters: species or system DBA/2J mice
What all share (settings): mouse, in vivo

In assay [1] the test system is IAV (WSNHAnc-Asp225Gly).
Assay [2] has as its system IAV (WSNHAnc-Asp225Gly). The source holds these as a separate data set.
For assay [3], the system named is IAV (WSNHAnc-Asp225Gly). The source holds these as a separate data set.

B1: KGF: keratinocyte growth factor, a potent pulmonary epithelial mitogen; cognate receptor FGFR2 (protein, UniProt P21781 32-194, looked up)
Fibroblast growth factor 7: CNDMTPEQMATNVNCSSPERHTRSYDYMEGGDIRVRRLFCRTQWYLRIDKRGKVKGTQEMKNNYNIMEIRTVAVGIVAIKGVESEFYLAMNKEGKLYAKKECNEDCNFKELILENHYNTYASAKWTHNGGEMFVALNQKGIPVRGKKTKKEQKTAHFLPMAIT
B1: in assay [1], the “IAV-NP staining of lung sections” value was “substantially more intense; also recorded: markedly more intense and diffuse”; the “blinded semiquantitative analysis of IAV-NP staining” value is “KGF-induced increase in viral burden and acceleration of spread”. Moreover, the “pulmonary viral burden vs PBS/IAV controls” value in assay [2] was “three- to fivefold greater; also recorded: No difference in viral burden”. In addition, in assay [3], the “KGF dose of maximal effect on IAV-induced mortality” value is given as 5 mg/kg; the “mortality after KGF pretreatment” value is on record as “did not enhance mortality”; the “mortality, dose response” value was “dose-dependent acceleration of mortality”; the shortening of survival was 3 days.
